In publication PMC2788424, “The 3′-Phosphoadenosine 5′-Phosphosulfate Transporters, PAPST1 and 2, Contribute to the Maintenance and Differentiation of Mouse Embryonic Stem Cells” (PLoS ONE, 2009):

Substrate: Nc1ncnc2c1ncn2[C@@H]1O[C@H](COP(=O)(O)OS(=O)(=O)O)[C@@H](OP(=O)(O)O)[C@H]1O
Assay: cells, lysate or membranes
Type: biochemical, Mus musculus
Conditions: labelled compound, 20 mM Tris-HCl pH 7.5, 0.25 M sucrose, 5 mM MgCl2, 1 mM MnCl2, 10 mM 2-mercaptoethanol, 32°C, 5 min

B1: PAPST1 (Mus musculus) (protein)
chain: MDARWWAVVVLATLPSLGAGGESPEAPPQSWTQLWLFRFLLNVAGYASFMVPGYLLVQYLRRKNYLETGRGLCFPLVKACVFGNEPKAPDEVLLAPRTETAESTPSWQVLKLVFCASGLQVSYLTWGILQERVMTGSYGATATSPGEHFTDSQFLVLMNRVLALVVAGLYCVLRKQPRHGAPMYRYSFASLSNVLSSWCQYEALKFVSFPTQVLAKASKVIPVMMMGKLVSRRSYEHWEYLTAGLISIGVSMFLLSSGPEPRSSPATTLSGLVLLAGYIAFDSFTSNWQDALFAYKMSSVQMMFGVNLFSCLFTVGSLLEQGALLEGARFMGRHSEFALHALLLSICSAFGQLFIFYTIGQFGAAVFTIIMTLRQAIAILLSCLLYGHTVTVVGGLGVAVVFTALLLRVYARGRKQRGKKAVPTEPPVQKV
Km: 1.54 µM

B2: PAPST2 (Mus musculus) (protein)
chain: MDLKFNNSRKYVSISVPSKTQAMSPHIKSVEDVVVLGVNLSKFSKLTQFLICVAGVFVFYLIYGYLQELIFSVEGFKPYGWYLTLVQFAFYSVFGLIELQLTQDRRRRIPGKTYMLIAFLTVGTMGLSNTSLGYLNYPTQVIFKCCKLIPVMLGGVFIQGKRYNLADVSAAVCMSLGLIWFTLADSTIAPNFNLTGVMLISLALCADAVIGNVQEKAMKLHNASNSEMVLYSYSIGFVYILLGLSCTSGLGPAVAFCSKNPVGTYGYAFLFSLTGYFGISFVLALIKIFGALLAVTVTTGRKAMTVVLSFLFFAKPFTFQYIWSGLLVVLGIFLNVYSKNMDKIRLPSVYNMIKKAMDMKKSRTLAQTV
Km: 1.49 µM
